Test results: patent US20080138349A1 (MacroGenics, published 2008)

T1: FcγRIIB (UniProt P31994 43-217, limits assumed)
T1 construct: also called CD32B
T1 sequence (looked up): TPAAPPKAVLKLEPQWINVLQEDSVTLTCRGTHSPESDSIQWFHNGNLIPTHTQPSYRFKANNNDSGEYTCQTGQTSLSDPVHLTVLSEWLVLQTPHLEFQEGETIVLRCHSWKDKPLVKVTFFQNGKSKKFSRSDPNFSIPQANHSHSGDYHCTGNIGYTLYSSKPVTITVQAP

T2: FcγRIIB-Fc fusion protein, soluble dimeric: extracellular domain of FcγRIIB fused to the hinge-CH2-CH3 domain … (human, UniProt P31994 43-217, limits assumed)
T2 construct: extracellular domain; also called FcRIIB-Fc; FcR2B; not shown: human IgG2 hinge-CH2-CH3
T2 sequence (looked up): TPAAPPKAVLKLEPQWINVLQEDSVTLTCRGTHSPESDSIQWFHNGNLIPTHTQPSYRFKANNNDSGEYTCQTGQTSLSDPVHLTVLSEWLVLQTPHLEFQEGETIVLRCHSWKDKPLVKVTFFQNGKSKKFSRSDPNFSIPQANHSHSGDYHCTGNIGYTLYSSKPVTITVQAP


Columns and labels:
[1] = molecular target: T1, FcγRIIB; assay: ELISA
[2] = molecular target: T3, FcγRIIIA (UniProt P08637 17-208, limits assumed); assay: ELISA
T3 construct: also called CD16A

[3] = molecular target: T3, FcγRIIIA; assay: ELISA; remark: listed apart in the source
[4] = molecular target: T3, FcγRIIIA; assay: ELISA; remark: listed apart in the source
[5] = molecular target: T2, FcγRIIB-Fc fusion protein, soluble …; assay: BIAcore
[6] = molecular target: T4, soluble monomeric FcγRIIIA, the extracellular region of FcγRIIIA joined to the linker-AVITAG sequence (UniProt P08637 17-208, limits assumed); assay: BIAcore
T4 construct: extracellular domain; also called FcRIIIA; FcR3A
T4 sequence (P08637 17-208 limits assumed): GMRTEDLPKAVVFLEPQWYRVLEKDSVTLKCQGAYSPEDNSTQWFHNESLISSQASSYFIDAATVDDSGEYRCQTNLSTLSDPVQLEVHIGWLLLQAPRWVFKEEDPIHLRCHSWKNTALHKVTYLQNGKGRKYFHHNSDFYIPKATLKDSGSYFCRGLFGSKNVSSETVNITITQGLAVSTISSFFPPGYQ

T3 sequence (P08637 17-208 limits assumed): as above

Binder	ELISA binding increase vs wt [1] [x]	ELISA binding increase vs wt [2] [x]	ELISA, OD [3] [OD]	ELISA IIIA binding vs wt [4] [X]	Kd [5] [nM]	Kd [6] [nM]	koff [5] [s⁻¹]	koff [6] [s⁻¹]
ch4-4-20 T215P, K274N, A287G, K334N, L365V, P396L (antibody) PEPKSCDKTHTCPPCPAPELLGGPSVFLFPPKPKDTLMISRTPEVTCVVVDVSHEDPEVNFNWYVDGVEVHNGKTKPREEQYNSTYRVVSVLTVLHQDWLNGKEYKCKVSNKALPAPIENTISKAKGQPREPQVYTLPPSRDELTKNQVSVTCLVKGFYPSDIAVEWESNGQPENNYKTTPLVLDSDGSFFLYSKLTVDKSRWQQGNVFSCSVMHEALHNHYTQKSLSLSPGK	4							
ch4-4-20 K317N, F423-deleted (antibody) EPKSCDKTHTCPPCPAPELLGGPSVFLFPPKPKDTLMISRTPEVTCVVVDVSHEDPEVKFNWYVDGVEVHNAKTKPREEQYNSTYRVVSVLTVLHQDWLNGNEYKCKVSNKALPAPIEKTISKAKGQPREPQVYTLPPSREEMTKNQVSLTCLVKGFYPSDIAVEWESNGQPENNYKTTPPVLDSDGSFFLYSKLTVDKSRWQQGNVSCSVMHEALHNHYTQKSLSLSPGK	7							
ch4-4-20 V348M, K334N, F275I, Y202M, K147T (antibody) ASTKGPSVFPLAPSSKSTSGGTAALGCLVTDYFPEPVTVSWNSGALTSGVHTFPAVLQSSGLYSLSSVVTVPSSSLGTQTYICNMNHKPSNTKVDKKVEPKSCDKTHTCPPCPAPELLGGPSVFLFPPKPKDTLMISRTPEVTCVVVDVSHEDPEVKINWYVDGVEVHNAKTKPREEQYNSTYRVVSVLTVLHQDWLNGKEYKCKVSNKALPAPIENTISKAKGQPREPQMYTLPPSRDELTKNQVSLTCLVKGFYPSDIAVEWESNGQPENNYKTTPPVLDSDGSFFLYSKLTVDKSRWQQGNVFSCSVMHEALHNHYTQKSLSLSPGK	0.75	0.5						
ch4-4-20 K288N, A330S, P396L (antibody) EPKSCDKTHTCPPCPAPELLGGPSVFLFPPKPKDTLMISRTPEVTCVVVDVSHEDPEVKFNWYVDGVEVHNANTKPREEQYNSTYRVVSVLTVLHQDWLNGKEYKCKVSNKALPSPIEKTISKAKGQPREPQVYTLPPSREEMTKNQVSLTCLVKGFYPSDIAVEWESNGQPENNYKTTPLVLDSDGSFFLYSKLTVDKSRWQQGNVFSCSVMHEALHNHYTQKSLSLSPGK			1	5				
ch4-4-20 E293V, Q295E, A327T (antibody) EPKSCDKTHTCPPCPAPELLGGPSVFLFPPKPKDTLMISRTPEVTCVVVDVSHEDPEVKFNWYVDGVEVHNAKTKPRVEEYNSTYRVVSVLTVLHQDWLNGKEYKCKVSNKTLPAPIEKTISKAKGQPREPQVYTLPPSREEMTKNQVSLTCLVKGFYPSDIAVEWESNGQPENNYKTTPPVLDSDGSFFLYSKLTVDKSRWQQGNVFSCSVMHEALHNHYTQKSLSLSPGK		0.4		1.4	86			
ch4-4-20 Y319F, P352L, P396L (antibody) EPKSCDKTHTCPPCPAPELLGGPSVFLFPPKPKDTLMISRTPEVTCVVVDVSHEDPEVKFNWYVDGVEVHNAKTKPREEQYNSTYRVVSVLTVLHQDWLNGKEFKCKVSNKALPAPIEKTISKAKGQPREPQVYTLLPSREEMTKNQVSLTCLVKGFYPSDIAVEWESNGQPENNYKTTPLVLDSDGSFFLYSKLTVDKSRWQQGNVFSCSVMHEALHNHYTQKSLSLSPGK				3.5		125		
ch4-4-20 D221E, D270E, V308A, Q311H, P396L, G402D (antibody) EPKSCEKTHTCPPCPAPELLGGPSVFLFPPKPKDTLMISRTPEVTCVVVDVSHEEPEVKFNWYVDGVEVHNAKTKPREEQYNSTYRVVSVLTALHHDWLNGKEYKCKVSNKALPAPIEKTISKAKGQPREPQVYTLPPSREEMTKNQVSLTCLVKGFYPSDIAVEWESNGQPENNYKTTPLVLDSDDSFFLYSKLTVDKSRWQQGNVFSCSVMHEALHNHYTQKSLSLSPGK	0.1	3.6						
ch4-4-20 V379M (antibody) chain 1: not shown chain 2: DVVMTQTPLSLPVSLGDQASISCRSSQSLVHSNGNTYLRWYLQKPGQSPKVLIYKVSNRFSGVPDRFSGSGSGTDFTLKISRVEAEDLGVYFCSQSTHVPWTFGGGTKLEIKRTVAAPSVFIFPPSDEQLKSGTASVVCLLNNFYPREAKVQWKVDNALQSGNSQESVTEQDSKDSTYSLSSTLTLSKADYEKHKVYACEVTHQGLSSPVTKSFNRGEC		2		2	70	160	0.1	0.167
ch4-4-20 K334E, T359N, T366S (antibody) chain 1: EVKLDETGGGLVQPGRPMKLSCVASGFTFSDYWMNWVRQSPEKGLEWVAQIRNKPYNYETYYSDSVKGRFTISRDDSKSSVYLQMNNLRVEDMGIYYCTGSYYGMDYWGQGTSVTVSSASTKGPSVFPLAPSSKSTSGGTAALGCLVKDYFPEPVTVSWNSGALTSGVHTFPAVLQSSGLYSLSSVVTVPSSSLGTQTYICNVNHKPSNTKVDKKVEPKSCDKTHTCPPCPAPELLGGPSVFLFPPKPKDTLMISRTPEVTCVVVDVSHEDPEVKFNWYVDGVEVHNAKTKPREEQYNSTYRVVSVLTVLHQDWLNGKEYKCKVSNKALPAPIEETISKAKGQPREPQVYTLPPSRDELNKNQVSLSCLVKGFYPSDIAVEWESNGQPENNYKTTPPVLDSDGSFFLYSKLTVDKSRWQQGNVFSCSVMHEALHNHYTQKSLSLSPGK chain 2: DVVMTQTPLSLPVSLGDQASISCRSSQSLVHSNGNTYLRWYLQKPGQSPKVLIYKVSNRFSGVPDRFSGSGSGTDFTLKISRVEAEDLGVYFCSQSTHVPWTFGGGTKLEIKRTVAAPSVFIFPPSDEQLKSGTASVVCLLNNFYPREAKVQWKVDNALQSGNSQESVTEQDSKDSTYSLSSTLTLSKADYEKHKVYACEVTHQGLSSPVTKSFNRGEC		1.5		1.5	72	55.2	0.11	0.128
ch4-4-20 F243I, V379L, G420V (antibody) chain 1: EVKLDETGGGLVQPGRPMKLSCVASGFTFSDYWMNWVRQSPEKGLEWVAQIRNKPYNYETYYSDSVKGRFTISRDDSKSSVYLQMNNLRVEDMGIYYCTGSYYGMDYWGQGTSVTVSSASTKGPSVFPLAPSSKSTSGGTAALGCLVKDYFPEPVTVSWNSGALTSGVHTFPAVLQSSGLYSLSSVVTVPSSSLGTQTYICNVNHKPSNTKVDKKVEPKSCDKTHTCPPCPAPELLGGPSVFLIPPKPKDTLMISRTPEVTCVVVDVSHEDPEVKFNWYVDGVEVHNAKTKPREEQYNSTYRVVSVLTVLHQDWLNGKEYKCKVSNKALPAPIEKTISKAKGQPREPQVYTLPPSRDELTKNQVSLTCLVKGFYPSDIALEWESNGQPENNYKTTPPVLDSDGSFFLYSKLTVDKSRWQQVNVFSCSVMHEALHNHYTQKSLSLSPGK chain 2: DVVMTQTPLSLPVSLGDQASISCRSSQSLVHSNGNTYLRWYLQKPGQSPKVLIYKVSNRFSGVPDRFSGSGSGTDFTLKISRVEAEDLGVYFCSQSTHVPWTFGGGTKLEIKRTVAAPSVFIFPPSDEQLKSGTASVVCLLNNFYPREAKVQWKVDNALQSGNSQESVTEQDSKDSTYSLSSTLTLSKADYEKHKVYACEVTHQGLSSPVTKSFNRGEC	3.5				93.4		0.101	
ch4-4-20 P247L, N421K (antibody) chain 1: not shown chain 2: DVVMTQTPLSLPVSLGDQASISCRSSQSLVHSNGNTYLRWYLQKPGQSPKVLIYKVSNRFSGVPDRFSGSGSGTDFTLKISRVEAEDLGVYFCSQSTHVPWTFGGGTKLEIKRTVAAPSVFIFPPSDEQLKSGTASVVCLLNNFYPREAKVQWKVDNALQSGNSQESVTEQDSKDSTYSLSSTLTLSKADYEKHKVYACEVTHQGLSSPVTKSFNRGEC		3		3	66	62	0.065	0.108
ch4-4-20 G316D, A378V, D399E (antibody) chain 1: EVKLDETGGGLVQPGRPMKLSCVASGFTFSDYWMNWVRQSPEKGLEWVAQIRNKPYNYETYYSDSVKGRFTISRDDSKSSVYLQMNNLRVEDMGIYYCTGSYYGMDYWGQGTSVTVSSASTKGPSVFPLAPSSKSTSGGTAALGCLVKDYFPEPVTVSWNSGALTSGVHTFPAVLQSSGLYSLSSVVTVPSSSLGTQTYICNVNHKPSNTKVDKKVEPKSCDKTHTCPPCPAPELLGGPSVFLFPPKPKDTLMISRTPEVTCVVVDVSHEDPEVKFNWYVDGVEVHNAKTKPREEQYNSTYRVVSVLTVLHQDWLNDKEYKCKVSNKALPAPIEKTISKAKGQPREPQVYTLPPSRDELTKNQVSLTCLVKGFYPSDIVVEWESNGQPENNYKTTPPVLESDGSFFLYSKLTVDKSRWQQGNVFSCSVMHEALHNHYTQKSLSLSPGK chain 2: DVVMTQTPLSLPVSLGDQASISCRSSQSLVHSNGNTYLRWYLQKPGQSPKVLIYKVSNRFSGVPDRFSGSGSGTDFTLKISRVEAEDLGVYFCSQSTHVPWTFGGGTKLEIKRTVAAPSVFIFPPSDEQLKSGTASVVCLLNNFYPREAKVQWKVDNALQSGNSQESVTEQDSKDSTYSLSSTLTLSKADYEKHKVYACEVTHQGLSSPVTKSFNRGEC	14	1.5		1.5	46	72	0.06	0.117
ch4-4-20 F243I, V379L (antibody) chain 1: not shown chain 2: DVVMTQTPLSLPVSLGDQASISCRSSQSLVHSNGNTYLRWYLQKPGQSPKVLIYKVSNRFSGVPDRFSGSGSGTDFTLKISRVEAEDLGVYFCSQSTHVPWTFGGGTKLEIKRTVAAPSVFIFPPSDEQLKSGTASVVCLLNNFYPREAKVQWKVDNALQSGNSQESVTEQDSKDSTYSLSSTLTLSKADYEKHKVYACEVTHQGLSSPVTKSFNRGEC					120	99.7	0.113	0.105
